PMC3381513
Like-named read-outs stand apart in the source and are kept apart here.

Legend:
CUGBP1 RRM1/2 [1] = molecular target: T1, CUGBP1 RRM1/2 (human, UniProt Q92879 14-187); experiment: filter binding
CUGBP1 RRM1/2 [2] = molecular target: T1, CUGBP1 RRM1/2; experiment: filter binding; remark: listed apart in the source
CUGBP1 RRM1/2 [3] = molecular target: T1, CUGBP1 RRM1/2; experiment: filter binding; remark: listed apart in the source
CUGBP1 RRM1/2 [4] = molecular target: T1, CUGBP1 RRM1/2; experiment: crystal structure
CUGBP1 RRM1/2 [5] = molecular target: T1, CUGBP1 RRM1/2; experiment: EMSA
CUGBP1 RRM1 (ITC) = CUGBP1 RRM1 (ITC) (human, UniProt Q92879 16-99); experiment: ITC
CUGBP1 RRM2 (ITC) = CUGBP1 RRM2 (ITC) (human, UniProt Q92879 109-187); experiment: ITC
Chain of CUGBP1 RRM2 (ITC) (Q92879 109-187): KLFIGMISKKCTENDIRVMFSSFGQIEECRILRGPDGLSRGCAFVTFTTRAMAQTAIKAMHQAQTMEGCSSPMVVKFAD

T1 sequence (Q92879 14-187): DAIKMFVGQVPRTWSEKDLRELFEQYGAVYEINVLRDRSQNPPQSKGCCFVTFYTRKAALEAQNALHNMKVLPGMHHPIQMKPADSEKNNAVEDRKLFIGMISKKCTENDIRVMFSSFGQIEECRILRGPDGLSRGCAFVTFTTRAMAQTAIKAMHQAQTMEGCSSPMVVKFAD
Chain of CUGBP1 RRM1 (ITC) (Q92879 16-99): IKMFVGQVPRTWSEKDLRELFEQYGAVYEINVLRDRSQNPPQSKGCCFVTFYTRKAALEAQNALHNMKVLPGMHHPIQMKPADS

GUUAUUUUUGUU (ssRNA) [A4G10]
binding signal (CUGBP1 RRM1/2 [1]): 4.4 fold reduction in binding vs N2

GUUUUUUUUUUU (ssRNA) [U4U10]
binding result (CUGBP1 RRM1/2 [2]): no binding

GUUGCUUUUGCU (ssRNA) [C5C11]
binding signal (CUGBP1 RRM1/2 [3]): ~5 fold loss in affinity vs N2

GUUGUUUUUAUU (ssRNA) [G4A10]
binding signal (CUGBP1 RRM1/2 [1]): 2.5 fold reduction in binding vs N2

GUUGUUUUUGUU (ssRNA, U8 = 5-bromouridine) [BrU8 sequence 2]
binding result (CUGBP1 RRM1/2 [4]): binds

UGUGUGUUGUGUG (ssRNA) [sequence 3, 13-mer]
binding result (CUGBP1 RRM1/2 [5]): binds

GUUCUUUUUCUU (ssRNA) [C4C10]
binding result (CUGBP1 RRM1/2 [2]): no binding

GUUAUUUUUAUU (ssRNA) [A4A10]
binding result (CUGBP1 RRM1/2 [2]): no binding

UUGUU (ssRNA) [UUGUU 5-nt]
Kd (CUGBP1 RRM1 (ITC)): 29 µM
Kd (CUGBP1 RRM2 (ITC)): 45 µM

GUUGUUUUUGUU (ssRNA, U2 = 5-bromouridine) [BrU2 sequence 2]
binding result (CUGBP1 RRM1/2 [4]): binds
